# Publication PMC8247850, “The Peculiar Case of the Hyper‐thermostable Pyrimidine Nucleoside Phosphorylase from Thermus thermophilus” (Chembiochem, 2021)
# T1: TtPyNP (Thermus thermophilus pyrimidine nucleoside phosphorylase) (Thermus thermophilus, UniProt Q5SHF9)
# T1 construct: gene TTHA1771
# T1 sequence (Q5SHF9 1-423): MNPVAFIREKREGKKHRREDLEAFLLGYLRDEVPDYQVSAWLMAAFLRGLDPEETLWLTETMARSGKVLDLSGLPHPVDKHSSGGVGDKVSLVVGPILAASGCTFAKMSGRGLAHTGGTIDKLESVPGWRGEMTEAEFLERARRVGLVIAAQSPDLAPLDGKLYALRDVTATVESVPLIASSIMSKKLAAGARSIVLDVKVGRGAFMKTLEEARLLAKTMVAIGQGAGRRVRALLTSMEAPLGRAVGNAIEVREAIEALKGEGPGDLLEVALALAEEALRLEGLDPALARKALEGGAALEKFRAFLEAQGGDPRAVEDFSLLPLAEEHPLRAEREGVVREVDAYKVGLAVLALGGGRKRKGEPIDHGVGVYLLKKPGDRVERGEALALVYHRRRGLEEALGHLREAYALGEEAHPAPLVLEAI
# B1: TtPyNP (Thermus thermophilus pyrimidine nucleoside phosphorylase) (Thermus thermophilus HB8) (protein)
# chain: T1 sequence (Q5SHF9 1-423)
# notes: tag not described in the main text
# Key:
# [1] = biological target: T1, TtPyNP (Thermus thermophilus pyrimidine nucleoside phosphorylase); details: co-substrate uridine
# [2] = substrate: O=c1ccn([C@@H]2O[C@H](CO)[C@@H](O)[C@H]2O)c(=O)[nH]1; assay: UV spectral unmixing of phosphorolysis initial rates; type: biochemical, Thermus thermophilus; details: 80 °C, pH 7, saturating phosphate, Michaelis-Menten-like only up to 1-2 mM, inhibition at higher concentration
Molecule,K M [1],Km [2],kcat [2]
O=P(O)(O)O [phosphate],saturating phosphate concentrations for which typical Michaelis–Menten behavior was observed; Figure S4,,
B1,,5.92 ± 8.72 mM,624.89 ± 823.49 s⁻¹
